“And” between values parts separate entries of the source, which are not always exact repeats. Equal entries are not always repeated.
B1: Ribonuclease, P00648 (parent)
chain: MMKMEGIALKKRLSWISVCLLVLVSAAGMLFSTAAKTETSSHKAHTEAQVINTFDGVADYLQTYHKLPDNYITKSEAQALGWVASKGNLADVAPGKSIGGDIFSNREGKLPGKSGRTWREADINYTSGFRNSDRILYSSDWLIYKTTDHYQTFTKIR

Variants of: B1
Conditions: Bacillus amyloliquefaciens, pH 4.4, Thermal, DSC, Sodium acetate/Acetic acid 6.08 mM/13.92 mM/, reversible: yes (>95%), structure 1BNI, whole UniProt chain shown; for ddG of mutation (higher = less stable) / heat capacity change of unfolding / unfolding free energy: 25 °C

Variant	ddG of mutation (higher = less stable)	heat capacity change of unfolding [kcal/mol/K]	unfolding free energy	Tm	change of melting temperature, mutant - wild type (higher = more stable)	unfolding enthalpy (calorimetric)	unfolding enthalpy (van 't Hoff)
MMKMEGIALKKRLSWISVCLLVLVSAAGMLFSTAAKTETSSHKAHTEAQVINTFDGVADYLQTYHKLPDNYITKSEAQALGWVASKGNLADVAPGKSIGGDIFSNREGKLPGKSGRTWREADINYTSGFRNSDRILYSSDWLVYKTTDHYQTFTKIR	1.18 kcal/mol and 1.17 kcal/mol	1.6	7.51 kcal/mol and 7.52 kcal/mol	49.2 °C	-2.29 °C and -2.3 °C	120 kcal/mol and 112 kcal/mol	125 kcal/mol and 123 kcal/mol
MMKMEGIALKKRLSWISVCLLVLVSAAGMLFSTAAKTETSSHKAHTEAQVINTFDGVADYLQTYHKLPDNYITKSEAQALGWVASKGNLADVAPGKSIGGDIFSNREGKLPGKSGRTWREADINYTSGFRNSDRVLYSSDWLIYKTTDHYQTFTKIR	1.47 kcal/mol	1.6	7.22 kcal/mol	48.1 °C	-3.37 °C	119 kcal/mol	125 kcal/mol
MMKMEGIALKKRLSWISVCLLVLVSAAGMLFSTAAKTETSSHKAHTEAQVINTFDGVADYLQTYHKLPDNYITKSEAQALGWVASKGNLADVAPGKSIGGDIFSNREGKLPGKSGMTWREADINYTSGFRNSDRILYSSDWLIYKTTDHYQTFTKIR	2.86 kcal/mol	1.6	5.8 kcal/mol	45.9 °C	-5.77 °C	106 kcal/mol	118 kcal/mol
MMKMEGIALKKRLSWISVCLLVLVSAAGMLFSTAAKTETSSHKAHTEAQVINTFDGVADYLQTYHKLPDNYITKSEAQALGWVASKGNLADVAPGKSIGGNIFSNREGKLPGKSGRTWREADINYTSGFRNSDRILYSSDWLIYKTTDHYQTFTKIR	2.46 kcal/mol and 2.66 kcal/mol	1.6	6.2 kcal/mol and 6 kcal/mol	44.6 °C and 44.1 °C	-7.06 °C and -7.49 °C	117 kcal/mol and 115 kcal/mol	113 kcal/mol and 116 kcal/mol
MMKMEGIALKKRLSWISVCLLVLVSAAGMLFSTAAKTETSSHKAHTEAQVINTFDGVADYLQRYHKLPDNYITKSEAQALGWVASKGNLADVAPGKSIGGDIFSNREGKLPGKSGRTWREADINYTSGFRNSDRILYSSDWLIYKTTDHYQTFTKIR	-0.2 kcal/mol	1.6	8.86 kcal/mol	53 °C	1.33 °C	126 kcal/mol	130 kcal/mol
MMKMEGIALKKRLSWISVCLLVLVSAAGMLFSTAAKTETSSHKAHTEAQVINTFDGVADYLQTYHKLPDNYITKSEAQALGWVASKGNLADVAPGKSIGGDIFSNREGKLPGKSGRTWREADINYTSGFRNSDRILYASDWLIYKTTDHYQTFTKIR	1.38 kcal/mol and 1.16 kcal/mol	1.6	7.31 kcal/mol and 7.53 kcal/mol	46.7 °C	-4.81 °C and -4.8 °C	126 kcal/mol and 129 kcal/mol	116 kcal/mol and 115 kcal/mol
MMKMEGIALKKRLSWISVCLLVLVSAAGMLFSTAAKTETSSHKAHTEAQVINTFDGVADYLQTYHKLPDNYITKSEAQALGWVASKGNLADVAPGKSVGGDIFSNREGKLPGKSGRTWREADINYTSGFRNSDRILYSSDWLIYKTTDHYQTFTKIR	1.86 kcal/mol	1.6	6.83 kcal/mol	47 °C	-4.53 °C	118 kcal/mol	114 kcal/mol
MMKMEGIALKKRLSWISVCLLVLVSAAGMLFSTAAKTETSSHKAHTEAQVINTFDGVAGYLQTYHKLPDNYITKSEAQALGWVASKGNLADVAPGKSIGGDIFSNREGKLPGKSGRTWREADINYTSGFRNSDRILYSSDWLIYKTTDHYQTFTKIR	0.78 kcal/mol	1.6	7.88 kcal/mol	49.7 °C	-1.95 °C	123 kcal/mol	124 kcal/mol
MMKMEGIALKKRLSWISVCLLVLVSAAGMLFSTAAKTETSSHKAHTEAQVINTFDGVADYLQTYHKLPMNYITKSEAQALGWVASKGNLADVAPGKSIGGDIFSNREGKLPGKSGRTWREADINYTSGFRNSDRILYSSDWLIYKTTDHYQTFTKIR	0.27 kcal/mol	1.6	8.39 kcal/mol	50.1 °C	-1.57 °C	129 kcal/mol	128 kcal/mol
MMKMEGIALKKRLSWISVCLLVLVSAAGMLFSTAAKTETSSHKAHTEAQVINTFDGVADYLQTYHKLPDNYIGKSEAQALGWVASKGNLADVAPGKSIGGDIFSNREGKLPGKSGRTWREADINYTSGFRNSDRILYSSDWLIYKTTDHYQTFTKIR	2.08 kcal/mol	1.6	6.58 kcal/mol	47.6 °C	-4.06 °C	112 kcal/mol	118 kcal/mol
MMKMEGIALKKRLSWISVCLLVLVSAAGMLFSTAAKTETSSHKAHTEAQVINTFAGVADYLQTYHKLPDNYITKSEAQALGWVASKGNLADVAPGKSIGGDIFSNREGKLPGKSGRTWREADINYTSGFRNSDRILYSSDWLIYKTTDHYQTFTKIR	0.69 kcal/mol	1.6	7.97 kcal/mol	49.7 °C	-1.91 °C	124 kcal/mol	127 kcal/mol
MMKMEGIALKKRLSWISVCLLVLVSAAGMLFSTAAKTETSSHKAHTEAQVINTFDGVADYLQTYHKLPDNYITKSEAQALGWVASKGNLADVAPGKSIGGDIFSNREGKLPGKSGRTWREADINYTSGFQNSDRILYSSDWLIYKTTDHYQTFTKIR	1.58 kcal/mol	1.6	7.08 kcal/mol	48.3 °C	-3.29 °C	117 kcal/mol	122 kcal/mol
MMKMEGIALKKRLSWISVCLLVLVSAAGMLFSTAAKTETSSHKAHTEAQVINTFDGVADYLQTYHKLPDNYITKSEAQALGWVASKGNLADVAPGKSIGGDIFSNREGKLPGKSGRTWREADINYTSGFRNSDRILYSADWLIYKTTDHYQTFTKIR	2.83 kcal/mol	1.6	5.83 kcal/mol	44.5 °C	-7.13 °C	111 kcal/mol	110 kcal/mol

Reference: FireProtDB (doi:10.1093/protein/7.9.1089)
